Assay results: patent CN118307667A

Target: RSV A/B株的融合蛋白的融合前和融合后构象
Assay: ELISA, F protein coated 50 ng/well, anti-human IgG-Fc-HRP

B1: RSFP2B6抗体 (antibody, V domains shown)
VH: QVQLVQSGGALAQPGRSLRLSCTTSGFTFGDYAVNWVRQAPGKGLEWVGIVRTEPYGGTTEYSASVKGRFIISRDDSKGIAYLQMNSLKTEDTGVYYCSQPILNVDVWGQGTTVTVSS
VL: NFMLTQPHSVSESPGKTVTISCTRSSGSFGSDYVQWYQQRPGSAPNTVIYENNQRPSGVPDRFSGSIDSSSNSASLTISGLKTEDEADYYCQSYDDNTPWVFGGGTELTVL
  EC50: 0.292 to 0.603 µg/mL
